# B1: bivalent Fab No. 6 (HCVR SEQ ID NO: 3 / LCVR SEQ ID NO: 4) (Fab, V domains shown)
# VH: EVQLLESGGGLVQPGGSLRLSCAASGFTFRGYYMSWVRQAPGKGLEWVSSISGFSSNTYYADSVKGRFTISRDNSKNTLYLQMNSLRAEDTAVYYCARVRYLAYAFDYWGQGTLVTVSS
# VL: DIELTQPPSVSVSPGQTASITCSGDSLPDKRAYWYQQKPGQAPVLVIYGDSHRPSGIPERFSGSNSGNTATLTISGTQAEDEADYYCSSWGSRTWVFGGGTKLTVLG
# B2: bivalent Fab No. 8 (HCVR SEQ ID NO: 5 / LCVR SEQ ID NO: 6) (Fab, V domains shown)
# VH: QVQLVQSGAEVKKPGSSVKVSCKASGGTFSGYYISWVRQAPGQGLEWMGGIIPISGRANYAQKFQGRVTITADESTSTAYMELSSLRSEDTAVYYCARSRSYYHFDLWGQGTLVTVSS
# VL: DIALTQPASVSGSPGQSITISCTGTSSDVGRYNSVSWYQQHPGKAPKLMIYRVSKRPSGVSNRFSGSKSGNTASLTISGLQAEDEADYYCQSWASLSNVVFGGGTKLTVLG
# Biological target: Mycobacteria modified Low Density Lipoprotein (MtLDL) (human) (UniProt P04114)
# Experiment: sandwich ELISA, value told of the pair No. 6 with No. 8
row,Binder,"specific signal, fold above native LDL background"
1,B1,> 4 fold
2,B2,> 4 fold
